Results: patent publication US6759239

Target: CD40 on APCs (CD2-depleted human PBMC) (human) (UniProt P25942)
Assay: cell-based or functional assay

Chain of UniProt P25942 (P25942 21-277): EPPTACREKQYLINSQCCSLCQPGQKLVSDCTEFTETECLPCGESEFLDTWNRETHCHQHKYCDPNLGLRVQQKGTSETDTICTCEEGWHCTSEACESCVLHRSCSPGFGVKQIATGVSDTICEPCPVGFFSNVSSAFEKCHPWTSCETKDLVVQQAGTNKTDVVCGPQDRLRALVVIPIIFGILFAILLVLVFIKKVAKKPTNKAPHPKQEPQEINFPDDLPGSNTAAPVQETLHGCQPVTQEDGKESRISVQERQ

% Positive APCs for CD40 after 24 h with D1.1 cells (APC alone: 99(203)) | % Positive APCs for CD54 after 24 h with D1.1 cells (APC alone: 60(350)) | % Positive APCs for CD58 after 24 h with D1.1 cells (APC alone: 42(374)) | % Positive APCs for CD80 after 24 h with D1.1 cells (APC alone: 17(90)) | % Positive APCs for CD86 after 24 h with D1.1 cells (APC alone: 35(318)) | MFI of CD40 on APCs after 24 h with D1.1 cells (APC alone: 99(203)) (scale: MFI) | MFI of CD54 on APCs after 24 h with D1.1 cells (APC alone: 60(350)) (scale: MFI) | MFI of CD58 on APCs after 24 h with D1.1 cells (APC alone: 42(374)) (scale: MFI) | MFI of CD80 on APCs after 24 h with D1.1 cells (APC alone: 17(90)) (scale: MFI) | MFI of CD86 on APCs after 24 h with D1.1 cells (APC alone: 35(318)) (scale: MFI) | % Positive APCs for CD40 after 48 h with CD40 mAb on CD32+ L cells plus IL-4 (APC alone: 99(231)) | % Positive APCs for CD54 after 48 h with CD40 mAb on CD32+ L cells plus IL-4 (APC alone: 65(283)) | % Positive APCs for CD80 after 48 h with CD40 mAb on CD32+ L cells plus IL-4 (APC alone: 16(78)) | % Positive APCs for CD86 after 48 h with CD40 mAb on CD32+ L cells plus IL-4 (APC alone: 30(310)) | MFI of CD40 on APCs after 48 h with CD40 mAb on CD32+ L cells plus IL-4 (APC alone: 99(231)) (scale: MFI) | MFI of CD54 on APCs after 48 h with CD40 mAb on CD32+ L cells plus IL-4 (APC alone: 65(283)) (scale: MFI) | MFI of CD58 on APCs after 48 h with CD40 mAb on CD32+ L cells plus IL-4 (APC alone: 40(315)) (scale: MFI) | MFI of CD80 on APCs after 48 h with CD40 mAb on CD32+ L cells plus IL-4 (APC alone: 16(78)) (scale: MFI) | MFI of CD86 on APCs after 48 h with CD40 mAb on CD32+ L cells plus IL-4 (APC alone: 30(310)) (scale: MFI) | Substance
99% | 85% | 70% | 41% | 49% | 312 | 358 | 380 | 141 | 327 |  |  |  |  |  |  |  |  |  | CD40L constitutively expressed on the D1.1 Jurkat T cell line (from UniProt P29965 1-261) (ligand)
 |  |  |  |  |  |  |  |  |  | 99% | 97% | 31% | 63% | 430 | 443 | 458 | 109 | 464 | mAb CD40 G28-5 (antibody)
